The record followed here is patent US20170080108A1 (DNARX, published 2017).

The target in assay [1] is CD20 on human Raji B cells (human) (UniProt P11836). Kind of assay: flow cytometry on Raji cells, anti-human IgG-PE detection. Background: A flow cytometer gives signals particle by particle.
In assay [2] the target is T1, CD20 on human Raji B cells (human, UniProt P11836 1-297).
T1 construct: whole, on cells; The target is presented on Raji cells; also called CD20+ human B lymphoma (Raji) cells; CD-20+ human Raji B cells
T1 sequence (looked up): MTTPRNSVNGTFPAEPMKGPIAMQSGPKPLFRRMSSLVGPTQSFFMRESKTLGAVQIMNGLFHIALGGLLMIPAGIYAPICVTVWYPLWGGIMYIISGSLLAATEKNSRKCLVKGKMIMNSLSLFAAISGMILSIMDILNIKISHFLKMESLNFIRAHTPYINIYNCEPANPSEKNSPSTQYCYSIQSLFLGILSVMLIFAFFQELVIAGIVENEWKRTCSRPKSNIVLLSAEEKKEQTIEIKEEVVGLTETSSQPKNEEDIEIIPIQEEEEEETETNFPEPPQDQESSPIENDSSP
The description is as above.

For the molecule “Rituximab present in mouse serum after injection of a dual cassette, single plasmid Rituximab DNA vector (antibody)”, in assay [1], the Mean Fluorescence Intensity was 3530 and the fluorescence intensity, fold over background is greater than 10 fold.

B1: recombinant Rituximab protein (antibody, V domains shown)
VH: QVQLQQPGAELVKPGASVKMSCKASGYTFTSYNMHWVKQTPGRGLEWIGAIYPGNGDTSYNQKFKGKATLTADKSSSTAYMQLSSLTSEDSAVYYCARSTYYGGDWYFNVWGAGTTVTVSA
VL: QIVLSQSPAILSASPGEKVTMTCRASSSVSYIHWFQQKPGSSPKPWIYATSNLASGVPVRFSGSGSGTSYSLTISRVEAEDAATYYCQQWTSNPPTFGGGTKLEIK
For B1, in assay [2], the “fluorescence intensity, fold over background” value was greater than 10 fold.
